Data as given in publication PMC3062689 (Biochemistry, 2011).
Like-named read-outs stand apart in the source and are kept apart here.

Legend:
Assay in all cases: SEC-MALS
[1] = molecular target: Mouse arrestin-1-(F86A,F198A) (mouse) (UniProt P20443)
[2] = molecular target: Mouse arrestin-1-(F86A,F198A, A349V) (mouse) (UniProt P20443)
[3] = molecular target: the molecule itself
[4] = molecular target: the molecule itself; remark: listed apart in the source
[5] = molecular target: the molecule itself; remark: listed apart in the source
[6] = molecular target: the molecule itself; remark: listed apart in the source

“Mouse arrestin-1-(F86A,F198A) (from UniProt P20443 1-403) (natural protein)” was tested, and the Kd [1] was 537 µM, the log Kdim (association constant) [1] was 3.27 and the stoichiometry N [1] was 2.

Work on “Mouse arrestin-1-(F86A,F198A, A349V) (from UniProt P20443 1-403) (natural protein)” yielded a Kd [2] of 724 µM, a log Kdim (association constant) [2] of 3.14 and a stoichiometry N [2] of 2.

B1: wild type human arrestin-1 (natural protein, UniProt P10523 1-405, looked up)
chain: MAASGKTSKSEPNHVIFKKISRDKSVTIYLGNRDYIDHVSQVQPVDGVVLVDPDLVKGKKVYVTLTCAFRYGQEDIDVIGLTFRRDLYFSRVQVYPPVGAASTPTKLQESLLKKLGSNTYPFLLTFPDYLPCSVMLQPAPQDSGKSCGVDFEVKAFATDSTDAEEDKIPKKSSVRLLIRKVQHAPLEMGPQPRAEAAWQFFMSDKPLHLAVSLNKEIYFHGEPIPVTVTVTNNTEKTVKKIKAFVEQVANVVLYSSDYYVKPVAMEEAQEKVPPNSTLTKTLTLLPLLANNRERRGIALDGKIKHEDTNLASSTIIKEGIDRTVLGILVSYQIKVKLTVSGFLGELTSSEVATEVPFRLMHPQPEDPAKESYQDANLVFEEFARHNLKDAGEAEEGKRDKNDVDE
For B1, the Kd [3] was 2.95 µM and the Kd [4] was 224 µM.

B2: wild type mouse arrestin-1 (natural protein, UniProt P20443 1-403, looked up)
chain: MAACGKTNKSHVIFKKVSRDKSVTIYLGKRDYVDHVSQVEPVDGVVLVDPELVKGKKVYVTLTCAFRYGQEDIDVMGLTFRRDLYFSRVQVYPPVGAMSVLTQLQESLLKKLGDNTYPFLLTFPDYLPCSVMLQPAPQDVGKSCGVDFEVKAFASDITDPEEDKIPKKSSVRLLIRKVQHAPPEMGPQPSAEASWQFFMSDKPLNLSVSLSKEIYFHGEPIPVTVTVTNNTDKVVKKIKVSVEQIANVVLYSSDYYVKPVASEETQEKVQPNSTLTKTLVLVPLLANNRERRGIALDGKIKHEDTNLASSTIIKEGIDRTVMGILVSYHIKVKLTVSGFLGELTSSEVATEVPFRLMHPQPEDPAKESVQDENLVFEEFARQNLKDTGENTEGKKDEDAGQDE
In the case of B2, the “stoichiometry N” value [5] is reported as 4, the Kd [3] is reported as 57.5 µM and the “stoichiometry N” value [6] is reported as 2. For the same molecule, the Kd [4] was 63.1 µM.
